Data taken from patent US20230242654A1, “REAGENTS FOR EXPANDING CELLS EXPRESSING RECOMBINANT RECEPTORS” (Juno Therapeutics, Inc., priority 2017, published 2023).

How the values were obtained:
Format in all cases: cell-based, human
[1] = system: T cells transduced with anti-CD19 CAR having an scFv derived from FMC63; assay: Cytokine levels and phenotype at thaw versus after 9 days with anti-ID B-1 conjugated beads; settings: 9 days with beads versus immediately after thaw
Excerpt: CD3-purified T cells were isolated from peripheral blood mononuclear cells (PBMCs) of two donor patients, transduced with a viral vector encoding an anti-CD19 CAR having an scFv derived from FMC63 and expanded in culture with anti-CD3 and anti-CD28 antibody coated beads. After expansion, the expanded T cells were frozen by cryopreservation. For the studies, frozen T cells were thawed and CD4+ and CD8+ T cells assessed for intracellular cytokine levels or surface phenotype (d=0) or thawed CD4+, CD8+, or CD4+/CD8+ co-culture T cells were cultured for an additional 9 days in the presence of anti-ID B-1 conjugated beads prior to assessing intracellular cytokine levels and surface marker phenotype following stimulation by PMA/ionomycin or CD19 transduced K562 cells (d=9).
For assessment of intracellular cytokine levels, Golgi inhibitor was added for 4 hours and then TNFα, IFNγ, and IL-2 was assessed by flow cytometry. For all conditions, the extent of intracellular cytokine expression was substantially greater when cells were stimulated in with PMA/ionomycin as compared to CAR-specific stimulation with CD19 transduced K562 cells. […] Similar results were obtained in cells from the two donors.
Surface expression of the activation marker CD25, surface expression of inhibitory receptors PD-1 and LAG-3, and nuclear expression of the proliferation marker Ki-67 were also assessed in CD4+ or CD8+ cells immediately after thaw (d=0) or in CD4+ or CD8+ T cells expanded alone or as a CD4/CD8 co-culture for an additional 9 days in the presence of the anti-ID conjugated beads (d=9).

[2] = system: anti-CD19 CAR+ T cells; assay: Chronic stimulation assay, 14 days with anti-ID conjugated beads, then K562-CD19 challenge; settings: 14 days CAR-specific stimulation versus none; E:T 1:1
Excerpt: Separate compositions of CD4+ and CD8+ cells were isolated from human donors, activated and transduced with a viral vector encoding an anti-CD19 CAR having an scFv derived from FMC63. CD4+ and CD8+ T cells from each donor were then separately harvested, formulated, and cryofrozen. The cryofrozen engineered CD4+ and CD8+ T cells were thawed and formulated at a 1:1 ratio of CD4+ and CD8+ T cells from the same donor to generate a T cell composition containing CAR+ T cells. Anti-ID conjugated beads against the anti-CD19 CAR were incubated with cells at a 1:1 bead:cell ratio for 14 days.
[…] The primary response of T cells from the T cell composition that had not been incubated with the anti-ID conjugated beads also was determined by similar stimulation with antigen-expressing cells (Day 0; “primary”). […] Killing activity was assessed by measuring the loss of viable target cells over 72 hours, as determined by loss of fluorescent signal over time by kinetic fluorescence microscopy (using the INCUCYTE® Live Cell Analysis System, Essen Bioscience). Killing index was determined as the inverse of the area under the curve (AUC) for target fluorescence over time. Intracellular cytokine levels of IL-2 and TNF-alpha also was assessed by flow cytometry in co-cultured T cells after incubation in the presence of Golgi inhibitor. […]

[3] = system: T cells transduced with anti-CD19 CAR having an scFv derived from FMC63; assay: CAR-specific cell expansion with anti-ID B-1 conjugated beads, 9 days, two patient donors
Procedure: Similar studies as those described in Examples 11 and 12 were performed, except using CAR-expressing T cells generated from two different patient donors. CD3-purified T cells were isolated from peripheral blood mononuclear cells (PBMCs) of two donor patients, transduced with a viral vector encoding an anti-CD19 CAR having an scFv derived from FMC63, expanded in culture, frozen, and thawed.
Thawed CD4+, CD8+ or co-cultures of CD4/CD8 (1:1 ratio) were seeded in wells of a 6-well plate at approximately 5×10^6 total cells/well in culture media that was additionally supplemented with cytokines as follows: for CD4+ cells or CD4+/CD8+ co-cultures media was supplemented with approximately 1200 IU/mL recombinant IL-7, 20 IU/mL recombinant IL-15 and 100 IU/mL recombinant IL-2; for CD8+ cells media was supplemented with 200 IU/mL recombinant IL-2 and 20 IU/mL recombinant IL-15. Anti-ID B-1 conjugated beads were added to cells at a 1:1 cell:bead ratio and incubated up to 9 days with a 50% media exchange every 2-3 days.
At various times of culture, the number of CD4+ or CD8+ transduced cells (as detected by anti-EGFR for expression of the EGFRt surrogate marker) present in the culture for each condition was assessed and fold expansion or frequency of the CAR-expressing cells as a percent of total cells was determined. Expression of PD-1 and CD25 and cell viability also was determined.

B1: anti-ID conjugated beads: FMC63-derived scFv-specific anti-idiotype antibody (B-1 in Examples 10-14) covalently coupled to tosyl-activated magnetic beads (conjugate)
heavy: EVQLQQSGPELVKPGASVKMSCKASGYTFTDYYMKWVKQCHGKSLEWIGDINPNNGGTDYNQNFKGKATLTVDKSSSTAYMQLNSLTSEDSAVYYCAREGNNYGSRDAMDYWGQGTSVTVSSAKTTAPSVYPLAPVCGDTTGSSVTLGCLVKGYFPEPVTLTWNSGSLSSGVHTFPAVLQSDLYTLSSSVTVTSSTWPSQSITCNVAHPASSTKVDKKIEPRGPTIKPCPPCKCPAPNLLGGPSVFIFPPKIKDVLMISLSPIVTCVVVDVSEDDPDVQISWFVNNVEVHTAQTQTHREDYNSTLRVVSALPIQHQDWMSGKEFKCKVNNKDLPAPIERTISKPKGSVRAPQVYVLPPPEEEMTKKQVTLTCMVTDFMPEDIYVEWTNNGKTELNYKNTEPVLDSDGSYFMYSKLRVEKKNWVERNSYSCSVVHEGLHNHHTTKSFSRTPGK
light: QIVLTQSPALMSASPGEKVTMTCSASSGVIYMYWYQQKPRSSPKPWIYLTSNLASGVPARFSGSGSGTSYSLTISSMEAEDAATYYCQQWSSNPLTFGAGTKLELKRADAAPTVSIFPPSSEQLTSGGASVVCFLNNFYPKDINVKWKIDGSERQNGVLNSWTDQDSKDSTYSMSSTLTLTKDEYERHNSYTCEATHKTSTSPIVKSFNRNEC
- expression of CD25 and Ki-67 [1]: reduced expression of CD25, but not Ki-67
- expression of PD-1 and LAG-3 [1]: decreased expression of PD-1 and LAG-3
- levels of IFNγ [1]: Increased levels of IFNγ
- Intracellular cytokine levels of IL-2 and TNF-alpha [2]: also were reduced
- expansion of CAR-expressing (EGFRt+) CD4+ T cells ([3]; CD4+ cells cultured alone, 1:1 cell:bead, up to 9 days): over 60 fold
- expansion of CAR-expressing (EGFRt+) CD8+ T cells ([3]; CD8+ T cells co-cultured with CD4+ cells): substantially higher expansion
- CD25 expression ([3]; after 9 days): also was decreased
- frequency of transduced cells (EGFRt+) in the culture ([3]; day 9): > 90%
- PD-1 expression on CD4+ and CD8+ T cells ([3]; days 5, 7 and 9): decreased substantially over time
- Viability of CD4+ and CD8+ cells ([3]; during the 9 day culture): ~100%
